Source: patent US20190071490A1, “Preventing Post-Ictal Headaches” (Beth Israel Deaconess Medical Center, Inc., priority 2017, published 2019)

Legend:
[1] = target: T1, rat α-CGRP (Rattus norvegicus, UniProt P01256); assay: Biacore SPR affinity of Fab fragments to N-biotinylated rat α-CGRP on SA chip; assay type: binding; settings: 37° C., screening mode except underlined values
T1 construct: rat α (1-37); purchased GenScript Corporation or Global Peptide Services
T1 sequence (P01256 83-119 limits assumed): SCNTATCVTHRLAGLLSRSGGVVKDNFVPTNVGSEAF
Protocol: (§1) Affinity determination of the Fabs. Affinities of the anti-CGRP monoclonal antibodies were determined at either 25° C. or 37° C. using the BIACORE3000™ surface plasmon resonance (SPR) system (Biacore, INC, Piscataway N.J.) with the manufacture's own running buffer, HBS-EP (10 mM HEPES pH 7.4, 150 mM NaCl, 3 mM EDTA, 0.005% v/v polysorbate P20). Affinity was determined by capturing N-terminally biotinylated CGRP peptides (custom ordered from GenScript Corporation, New Jersey or Global Peptide Services, Colorado) via pre-immobilized streptavidin on SA chip and measuring binding kinetics of antibody Fab titrated across the CGRP surface. Biotinylated CGRP was diluted into HBS-EP and injected over the chip at a concentration of less than 0.001 mg/ml. Using variable flow time across the individual chip channels, two ranges of antigen density were achieved: <50 response units (RU) for detailed kinetic studies and about 800 RU for concentration studies and screening. […] After each binding cycle, surfaces were regenerated with 25 mM NaOH in 25% v/v ethanol, which was tolerated over hundreds of cycles. Kinetic association rate (kon) and dissociation rate (koff) were obtained simultaneously by fitting the data to a 1:1 Langmuir binding model (Karlsson et al. (1994). Methods Enzymology 6. 99-110) using the BIAevaluation program. Global equilibrium dissociation constants (KD) or “affinities” were calculated from the ratio KD=koff/kon.
(§2) Biacore assay for affinity determination. […] All Biacore assays were conducted in HBS-EP running buffer (10 mM HEPES pH 7.4, 150 mM NaCl, 3 mM EDTA, 0.005% v/v polysorbate P20). CGRP surfaces were prepared by diluting the N-biotinylated CGRP to a concentration of less than 0.001 mg/mL into HBS-EP buffer and injecting it across the SA sensor chip using variable contact times. Low capacity surfaces, corresponding to capture levels <50 response units (RU) were used for high-resolution kinetic studies, whereas high capacity surfaces (about 800 RU of captured CGRP) were used for concentration studies, screening, and solution affinity determinations. […] Samples were typically injected for 1 minute at 100 μL/min and dissociation times of at least 10 minutes were allowed. After each binding cycle, surfaces were regenerated with 25 mM NaOH in 25% v/v ethanol, which was tolerated over hundreds of cycles. An entire titration series (typically generated in duplicate) was fit globally to a 1:1 Langmuir binding model using the BIAevaluation program. This returned a unique pair of association and dissociation kinetic rate constants (respectively, kon and koff) for each binding interaction, whose ratio gave the equilibrium dissociation constant (KD=koff/kon).
(§3) High-resolution analysis of binding interactions with extremely slow off rates. […] The protocol described above was used with the following modifications. The association rate constant (kon) was determined by injecting a 2-fold titration series (in duplicate) spanning 550 nM-1 nM for 30 seconds at 100 μL/min and allowing only a 30 second dissociation phase. The dissociation rate constant (koff) was determined by injecting three concentrations (high, medium, and low) of the same titration series in duplicate for 30 seconds and allowing a 2-hour dissociation phase. The affinity (KD) of each interaction was obtained by combining the kon and koff values obtained in both types of experiments, as shown in Table 4.

[2] = target: T2, human α-CGRP (Homo sapiens, UniProt P06881); assay: Biacore SPR affinity of Fab fragments to N-biotinylated human α-CGRP on SA chip; assay type: binding; settings: 37° C., screening mode except underlined values
T2 construct: 1-37 (WT); purchased GenScript Corporation or Global Peptide Services
T2 sequence (P06881 83-119 limits assumed): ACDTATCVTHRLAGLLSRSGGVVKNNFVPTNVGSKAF
Protocol: as §1, §2, §3

Row | Molecule | α-rat koff [1] [s⁻¹] | α-human koff [2] [s⁻¹]
1 | M64: G1 variant; L1 R28N T30G; L2 G50A; H2 E54K A57N S58V; HC-FW3 L99T A100V (antibody, V domains shown) VH: EVQLVESGGGLVQPGGSLRLSCAASGFTFSNYWISWVRQAPGKGLEWVAEIRSKSDNVATHYAEAVKGRFTISRDNAKNSLYLQMNSLRAEDTAVYYCTVYFDYGLAIQNYWGQGTLVTVSS VL: EIVLTQSPATLSLSPGERATLSCKASKNVGTYVSWYQQKPGQAPRLLIYAASNRYLGIPARFSGSGSGTDFTLTISSLEPEDFAVYYCSQSYNYPYTFGQGTKLEIK | 0.0234 | 0.00132
2 | M71: G1 variant; L1 R28N T30G; L2 L561; H2 E54K A57Y; HC-FW3 L99T A100V (antibody, V domains shown) VH: EVQLVESGGGLVQPGGSLRLSCAASGFTFSNYWISWVRQAPGKGLEWVAEIRSKSDYSATHYAEAVKGRFTISRDNAKNSLYLQMNSLRAEDTAVYYCTVYFDYGLAIQNYWGQGTLVTVSS VL: EIVLTQSPATLSLSPGERATLSCKASKNVGTYVSWYQQKPGQAPRLLIYGASNRYIGIPARFSGSGSGTDFTLTISSLEPEDFAVYYCSQSYNYPYTFGQGTKLEIK | 0.00212 | 0.00128
3 | M65: G1 variant; L1 R28N T30G; L2 G50A L56I; H2 E54K A57C; HC-FW3 L99T A100V (antibody, V domains shown) VH: EVQLVESGGGLVQPGGSLRLSCAASGFTFSNYWISWVRQAPGKGLEWVAEIRSKSDCSATHYAEAVKGRFTISRDNAKNSLYLQMNSLRAEDTAVYYCTVYFDYGLAIQNYWGQGTLVTVSS VL: EIVLTQSPATLSLSPGERATLSCKASKNVGTYVSWYQQKPGQAPRLLIYAASNRYIGIPARFSGSGSGTDFTLTISSLEPEDFAVYYCSQSYNYPYTFGQGTKLEIK | 0.00407 | 0.000803
4 | M68: G1 variant; L1 R28N T30G; L2 L561; H2 E54K A57N S58D E64D; HC-FW3 L99T A100V (antibody, V domains shown) VH: EVQLVESGGGLVQPGGSLRLSCAASGFTFSNYWISWVRQAPGKGLEWVAEIRSKSDNDATHYADAVKGRFTISRDNAKNSLYLQMNSLRAEDTAVYYCTVYFDYGLAIQNYWGQGTLVTVSS VL: EIVLTQSPATLSLSPGERATLSCKASKNVGTYVSWYQQKPGQAPRLLIYGASNRYIGIPARFSGSGSGTDFTLTISSLEPEDFAVYYCSQSYNYPYTFGQGTKLEIK | 0.00676 | 0.000428
5 | M70: G1 variant; L1 R28N T30G; L2 L561; H2 E54K A57S; HC-FW3 L99T A100V (antibody, V domains shown) VH: EVQLVESGGGLVQPGGSLRLSCAASGFTFSNYWISWVRQAPGKGLEWVAEIRSKSDSSATHYAEAVKGRFTISRDNAKNSLYLQMNSLRAEDTAVYYCTVYFDYGLAIQNYWGQGTLVTVSS VL: EIVLTQSPATLSLSPGERATLSCKASKNVGTYVSWYQQKPGQAPRLLIYGASNRYIGIPARFSGSGSGTDFTLTISSLEPEDFAVYYCSQSYNYPYTFGQGTKLEIK | 0.00607 | 0.000559
6 | M69: G1 variant; L1 R28N T30G; L2 L561; H2 E54K A57N S58E; HC-FW3 L99T A100V (antibody, V domains shown) VH: EVQLVESGGGLVQPGGSLRLSCAASGFTFSNYWISWVRQAPGKGLEWVAEIRSKSDNEATHYAEAVKGRFTISRDNAKNSLYLQMNSLRAEDTAVYYCTVYFDYGLAIQNYWGQGTLVTVSS VL: EIVLTQSPATLSLSPGERATLSCKASKNVGTYVSWYQQKPGQAPRLLIYGASNRYIGIPARFSGSGSGTDFTLTISSLEPEDFAVYYCSQSYNYPYTFGQGTKLEIK | 0.00181 | 0.000733
7 | M67: G1 variant; L1 R28N T30G; L2 L561; H2 E54K A57F; HC-FW3 L99T A100V (antibody, V domains shown) VH: EVQLVESGGGLVQPGGSLRLSCAASGFTFSNYWISWVRQAPGKGLEWVAEIRSKSDFSATHYAEAVKGRFTISRDNAKNSLYLQMNSLRAEDTAVYYCTVYFDYGLAIQNYWGQGTLVTVSS VL: EIVLTQSPATLSLSPGERATLSCKASKNVGTYVSWYQQKPGQAPRLLIYGASNRYIGIPARFSGSGSGTDFTLTISSLEPEDFAVYYCSQSYNYPYTFGQGTKLEIK | 0.00171 | 0.00082
8 | M66: G1 variant; L1 R28N T30G; L2 L561; H2 E54K A57E; HC-FW3 L99T A100V (antibody, V domains shown) VH: EVQLVESGGGLVQPGGSLRLSCAASGFTFSNYWISWVRQAPGKGLEWVAEIRSKSDESATHYAEAVKGRFTISRDNAKNSLYLQMNSLRAEDTAVYYCTVYFDYGLAIQNYWGQGTLVTVSS VL: EIVLTQSPATLSLSPGERATLSCKASKNVGTYVSWYQQKPGQAPRLLIYGASNRYIGIPARFSGSGSGTDFTLTISSLEPEDFAVYYCSQSYNYPYTFGQGTKLEIK | 0.00511 | 0.00052

Other lines, results leading:

Row | α-rat koff [1] [s⁻¹] | α-human koff [2] [s⁻¹] | Molecule
9 | 0.00395 | 0.0004 | M72: G1 variant; L1 R28N T30G; L2 L56S; H2 E54K; HC-FW3 L99T A100V (antibody, V domains shown) VH: EVQLVESGGGLVQPGGSLRLSCAASGFTFSNYWISWVRQAPGKGLEWVAEIRSKSDASATHYAEAVKGRFTISRDNAKNSLYLQMNSLRAEDTAVYYCTVYFDYGLAIQNYWGQGTLVTVSS VL: EIVLTQSPATLSLSPGERATLSCKASKNVGTYVSWYQQKPGQAPRLLIYGASNRYSGIPARFSGSGSGTDFTLTISSLEPEDFAVYYCSQSYNYPYTFGQGTKLEIK
10 | 0.00603 | 0.000597 | M74: G1 variant; L1 R28N T30G; L2 L56S; H2 E54K A57S; HC-FW3 L99T A100V (antibody, V domains shown) VH: EVQLVESGGGLVQPGGSLRLSCAASGFTFSNYWISWVRQAPGKGLEWVAEIRSKSDSSATHYAEAVKGRFTISRDNAKNSLYLQMNSLRAEDTAVYYCTVYFDYGLAIQNYWGQGTLVTVSS VL: EIVLTQSPATLSLSPGERATLSCKASKNVGTYVSWYQQKPGQAPRLLIYGASNRYSGIPARFSGSGSGTDFTLTISSLEPEDFAVYYCSQSYNYPYTFGQGTKLEIK
11 | 0.003 | 0.000255 | M73: G1 variant; L1 R28N T30G; L2 L56S; H2 E54K A57N S58Y E64D; HC-FW3 L99T A100V (antibody, V domains shown) VH: EVQLVESGGGLVQPGGSLRLSCAASGFTFSNYWISWVRQAPGKGLEWVAEIRSKSDNYATHYADAVKGRFTISRDNAKNSLYLQMNSLRAEDTAVYYCTVYFDYGLAIQNYWGQGTLVTVSS VL: EIVLTQSPATLSLSPGERATLSCKASKNVGTYVSWYQQKPGQAPRLLIYGASNRYSGIPARFSGSGSGTDFTLTISSLEPEDFAVYYCSQSYNYPYTFGQGTKLEIK
